Experimental data: patent publication US20220119534A1 (DRAGONFLY THERAPEUTICS, published 2022)

Legend:
[1] = target: T1, Human CLEC12A expressed on cells (Ba/F3-hCLEC12A, PL21, HL60) (human, UniProt Q5QGZ9 1-265); assay: cell-based or functional assay
T1 sequence: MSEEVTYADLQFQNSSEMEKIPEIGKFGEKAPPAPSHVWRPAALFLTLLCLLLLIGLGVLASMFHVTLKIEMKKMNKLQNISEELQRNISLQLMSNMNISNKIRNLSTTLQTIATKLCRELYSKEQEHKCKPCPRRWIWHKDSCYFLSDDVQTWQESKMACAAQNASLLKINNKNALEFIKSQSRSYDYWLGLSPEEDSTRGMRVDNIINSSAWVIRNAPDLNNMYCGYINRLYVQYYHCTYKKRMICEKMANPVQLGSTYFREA

[2] = target: T2, mFc-hNKG2D (recombinant mFc-tagged human NKG2D dimer) (human, UniProt P26718 73-216); assay: SPR; after pH 8, 40C, 2 wks (n = 2)
T2 construct: extracellular domain; Made in house; not shown: mouse Fc tag
T2 sequence (looked up): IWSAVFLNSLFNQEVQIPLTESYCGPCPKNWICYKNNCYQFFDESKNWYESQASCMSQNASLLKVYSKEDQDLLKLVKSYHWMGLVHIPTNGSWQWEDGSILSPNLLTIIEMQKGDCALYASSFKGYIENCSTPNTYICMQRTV

[3] = target: T3, Human CD16a F158 (FcγRIIIa F158) (human, UniProt P08637 17-208, biotinylated); assay: SPR 25C, steady-state fit, average
T3 construct: Bought recombinant receptor; also called hFcγRIIIa F158
T3 sequence (P08637 17-208 limits assumed): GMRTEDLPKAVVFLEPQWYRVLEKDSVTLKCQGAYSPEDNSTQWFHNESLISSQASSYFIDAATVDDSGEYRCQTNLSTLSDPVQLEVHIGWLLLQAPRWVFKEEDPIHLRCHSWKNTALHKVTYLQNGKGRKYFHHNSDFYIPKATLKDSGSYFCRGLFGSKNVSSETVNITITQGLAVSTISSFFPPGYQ

[4] = target: T1, Human CLEC12A expressed on cells …; assay: cell-based or functional assay; remark: listed apart in the source
[5] = target: T1, Human CLEC12A expressed on cells …; assay: flow cytometry on Ba/F3-hCLEC12A cells
[6] = target: T2, mFc-hNKG2D (recombinant mFc-tagged …); assay: SPR; after forced oxidation
[7] = target: T4, Human CLEC12A-His (recombinant, K244 WT) (human, UniProt Q5QGZ9 65-265); assay: SPR, two-state fit (kd1); after forced oxidation
T4 construct: Made in house (Dragonfly Tx); also called hCLEC12A; hCLEC12A-His; not shown: His tag
T4 sequence: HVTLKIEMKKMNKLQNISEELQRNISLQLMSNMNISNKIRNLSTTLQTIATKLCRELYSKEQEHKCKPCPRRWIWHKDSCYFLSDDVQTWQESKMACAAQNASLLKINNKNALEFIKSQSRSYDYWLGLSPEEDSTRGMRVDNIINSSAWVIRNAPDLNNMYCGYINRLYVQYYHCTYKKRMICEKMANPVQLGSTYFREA

[8] = target: T4, Human CLEC12A-His (recombinant, K244 WT); assay: SPR 37C, two-state fit (kd1), average
Human CD64 (FcγRI) = target: T5, Human CD64 (FcγRI) (human, UniProt P12314 16-288, biotinylated); assay: SPR 25C, average
T5 construct: Bought recombinant receptor; also called hFcγRI; Human FcγRI
T5 sequence (P12314 16-288 limits assumed): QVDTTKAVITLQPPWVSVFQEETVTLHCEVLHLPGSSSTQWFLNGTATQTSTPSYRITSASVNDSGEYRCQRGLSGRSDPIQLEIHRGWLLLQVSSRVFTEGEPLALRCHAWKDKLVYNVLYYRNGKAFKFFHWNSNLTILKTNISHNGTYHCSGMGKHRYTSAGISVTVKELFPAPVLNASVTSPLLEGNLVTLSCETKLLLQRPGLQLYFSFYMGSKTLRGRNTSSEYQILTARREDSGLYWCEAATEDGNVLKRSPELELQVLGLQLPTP

Cynomolgus CD64 (FcγRI) = target: T6, Cynomolgus CD64 (FcγRI) (cynomolgus monkey, UniProt A0A2K5U901 33-309, Biotinylated and captured on the CAP chip (p-1094); the biotin site is not stated.); assay: SPR 25C, average
T6 construct: Bought recombinant receptor; also called cFcγRI; Cynomolgus FcγRI; not shown: The vendor's biotinylation and purification tag (ACRO FCA-C82E8)
T6 sequence (A0A2K5U901 entry or part of it limits assumed): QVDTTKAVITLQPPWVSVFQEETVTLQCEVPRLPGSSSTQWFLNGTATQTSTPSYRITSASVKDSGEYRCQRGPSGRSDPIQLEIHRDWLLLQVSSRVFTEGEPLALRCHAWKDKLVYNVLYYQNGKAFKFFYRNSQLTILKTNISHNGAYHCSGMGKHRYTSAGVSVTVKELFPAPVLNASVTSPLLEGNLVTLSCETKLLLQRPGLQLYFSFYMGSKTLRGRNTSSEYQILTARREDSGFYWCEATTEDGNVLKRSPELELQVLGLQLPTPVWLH

- Kd [2]: 983 nM
- koff [2]: 0.127 s⁻¹
- kon [2]: 130000 M⁻¹ s⁻¹
- Kd [3]: 1270 nM
- EC50 [5]: 4.02 nM
- Kd [6]: 762 nM
- koff [6]: 0.13 s⁻¹
- kon [6]: 171000 M⁻¹ s⁻¹
- koff [7]: 0.0481 s⁻¹
- koff [8]: 0.0435 s⁻¹
- Kd (Human CD64 (FcγRI)): 5.1 nM
- koff (Human CD64 (FcγRI)): 0.00023 s⁻¹
- kon (Human CD64 (FcγRI)): 46000 M⁻¹ s⁻¹
- Kd (Cynomolgus CD64 (FcγRI)): 1.5 nM
- koff (Cynomolgus CD64 (FcγRI)): 8.1e-05 s⁻¹
- kon (Cynomolgus CD64 (FcγRI)): 55000 M⁻¹ s⁻¹
B1: AB0089 TriNKET (bispecific antibody, human IgG1, kappa)
chain: QLQLQESGPGLVKPSETLSLTCTVSGFSLTNYGLHWIRQPPGKCLEWIGVIWVGGATDYNPSLKSRVTISVDTSKNQFSLKLSSVQAADTAVYYCAKGDYGDTLDYWGQGTLVTVSSGGGGSGGGGSGGGGSGGGGSDIQMTQSPSSLSASVGDRVTITCHASQNINFWLSWYQQKPGKAPKLLIYEASNLHTGVPSRFSGSGSGTDFTLTISSLQPEDFATYYCQQSHSYPLTFGCGTKLEIKGSDKTHTCPPCPAPELLGGPSVFLFPPKPKDTLMISRTPEVTCVVVDVSHEDPEVKFNWYVDGVEVHNAKTKPREEQYNSTYRVVSVLTVLHQDWLNGKEYKCKVSNKALPAPIEKTISKAKGQPREPRVYTLPPCRDELTKNQVSLTCLVKGFYPSDIAVEWESNGQPENNYKTTPPVLVSDGSFTLYSKLTVDKSRWQQGNVFSCSVMHEALHNHYTQKSLSLSPG
heavy: EVQLVESGGGLVKPGGSLRLSCAASGFTFSSYSMNWVRQAPGKGLEWVSSISSSSSYIYYADSVKGRFTISRDNAKNSLYLQMNSLRAEDTAVYYCARGAPIGAAAGWFDPWGQGTLVTVSSASTKGPSVFPLAPSSKSTSGGTAALGCLVKDYFPEPVTVSWNSGALTSGVHTFPAVLQSSGLYSLSSVVTVPSSSLGTQTYICNVNHKPSNTKVDKKVEPKSCDKTHTCPPCPAPELLGGPSVFLFPPKPKDTLMISRTPEVTCVVVDVSHEDPEVKFNWYVDGVEVHNAKTKPREEQYNSTYRVVSVLTVLHQDWLNGKEYKCKVSNKALPAPIEKTISKAKGQPREPQVCTLPPSRDELTENQVSLTCLVKGFYPSDIAVEWESNGQPENNYKTTPPVLDSDGSFFLYSWLTVDKSRWQQGNVFSCSVMHEALHNHYTQKSLSLSPG
light: DIQMTQSPSSVSASVGDRVTITCRASQGISSWLAWYQQKPGKAPKLLIYAASSLQSGVPSRFSGSGSGTDFTLTISSLQPEDFATYYCQQGVSFPRTFGGGTKVEIKRTVAAPSVFIFPPSDEQLKSGTASVVCLLNNFYPREAKVQWKVDNALQSGNSQESVTEQDSKDSTYSLSSTLTLSKADYEKHKVYACEVTHQGLSSPVTKSFNRGEC
notes: F3' format heterodimer of three chains; human IgG1 Fc with EW-RVT and Y349C/S354C mutations; also called AB0089 Lot AB0089-002; CLEC12A TriNKET AB0089
- EC50, KHYG1-CD16aV cytotoxicity assay; after forced oxidation [1]: 0.16 nM
- EC50, KHYG1-CD16aV cytotoxicity assay; control sample [1]: 0.11 nM
- EC50, cytotoxicity potency; after pH 8, 40C, 2 wks [4]: 0.23 nM
- EC50, cytotoxicity potency; control sample [4]: 0.11 nM
